The source of these data is patent US20120124686.

This series deals with T1, phiC31 integrase (phiC31o, mammalian codon-optimized) (Streptomyces phage phiC31) (UniProt Q9T221).
T1 sequence: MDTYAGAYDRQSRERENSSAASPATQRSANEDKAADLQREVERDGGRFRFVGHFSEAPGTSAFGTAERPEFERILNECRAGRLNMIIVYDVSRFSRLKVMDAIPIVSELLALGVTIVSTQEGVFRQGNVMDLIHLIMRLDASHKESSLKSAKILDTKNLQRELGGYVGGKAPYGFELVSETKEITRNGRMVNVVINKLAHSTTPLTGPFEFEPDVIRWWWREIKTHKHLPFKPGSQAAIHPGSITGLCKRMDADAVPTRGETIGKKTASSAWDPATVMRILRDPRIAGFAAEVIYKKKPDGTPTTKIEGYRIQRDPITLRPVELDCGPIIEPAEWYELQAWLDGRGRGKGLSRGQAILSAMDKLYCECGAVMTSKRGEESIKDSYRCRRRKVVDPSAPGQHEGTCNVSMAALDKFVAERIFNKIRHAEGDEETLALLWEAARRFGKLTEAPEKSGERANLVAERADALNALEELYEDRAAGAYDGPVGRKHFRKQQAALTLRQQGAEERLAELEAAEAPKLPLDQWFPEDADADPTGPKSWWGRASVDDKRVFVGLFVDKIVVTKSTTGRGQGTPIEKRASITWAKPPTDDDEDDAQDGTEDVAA
The experiment in a line: cell_activity.

full-length phiC31 attB (pTA-attB): the activity (% of F0 with site-specific integration) (attB plasmid pattB-pCA-GFP into H11P3NVphi, 10/64, 0/32 without integrase mRNA) was 15.6.

full-length phiC31 attP (pTA-attP): the activity (% of F0 with site-specific integration) (H11P(NVphi), mixed background, pooled 8/102, partner attB, mouse zygote injection) is 7.8.
